Reference: US20070154905A1 (YEDA RESEARCH AND DEVELOPMENT, published 2007)
Positions count from the first letter of the chain named. Numbers in names are those of the source.

B1: MORT-1 fragment, amino acids 1-117 (N-terminal part) (other)
chain: VNQAPECRFGGGILGPLGKRRDLARASEPRTEGARRAGPQPRPLADPAMDPFLVLLHSVSSSLSSSELTELKFLCLGRVVKRKLERVQSGLDLFSMLLEQNDLEPGHTELLRELLAS
notes: Gal4 fusion in two-hybrid tests; also called MORT-1 head; MORT 'head'
B2: MACHα1 mutant in which the catalytic cysteine Cys360 is replaced by Ser (enzyme)
chain: MDFSRNLYDIGEQLDSEDLASLKFLSLDYIPQRKQEPIKDALMLFQRLQEKRMLEESNLSFLKELLFRINRLDLLITYLNTRKEEMERELQTPGRAQISAYRVMLYQISEEVSRSELRSFKFLLQEEISKCKLDDDMNLLDIFIEMEKRVILGEGKLDILKRVCAQINKSLLKIINDYEEFSKERSSSLEGSPDEFSNGEELCGVMTISDSPREQDSESQTLDKVYQMKSKPRGYCLIINNHNFAKAREKVPKLHSIRDRNGTHLDAGALTTTFEELHFEIKPHDDCTVEQIYEILKIYQLMDHSNMDCFICCILSHGDKGIIYGTDGQEAPIYELTSQFTGLKCPSLAGKPKVFFIQASQGDNYQKGIPVETDSEEQPYLEMDLSSPQTRYIPDEADFLLGMATVNNCVSYRNPAEGTWYIQSLCQSLRERCPRGDDILTILTEVNYEVSNKDDKKNMGKQMPQPTFTLRKKLVFPSD
notes: Gal4 fusion in two-hybrid tests; also called MACHα1 (C360S); MACHα (C360S)
B3: intracellular domain of human p55 TNF receptor (residues 206-426) (receptor, UniProt P19438 235-455, looked up)
chain: RYQRWKSKLYSIVCGKSTPEKEGELEGTTTKPLAPNPSFSPTPGFTPTLGFSPVPSSTFTSSSTYTPGDCPNFAAPRREVAPPYQGADPILATALASDPIPNPLQKWEDSAHKPQSLDTDDPATLYAVVENVPPLRWKEFVRRLGLSDHEIDRLELQNGRCLREAQYSMLATWRRRTPRREATLELLGRVLRDMDLLGCLEDIEEALCGPAALPPAPSLLR
notes: range 206-426; Gal4 fusion in two-hybrid tests; also called p55-IC; p55 IC
B4: MACH (construct with the full-length MACH cDNA) (other)
chain: MDFSRNLYDIGEQLDSEDLASLKFLSLDYIPQRKQEPIKDALMLFQRLQEKRMLEESNLSFLKELLFRINRLDLLITYLNTRKEEMERELQTPGRAQISAYRVMLYQISEEVSRSELRSFKFLLQEEISKCKLDDDMNLLDIFIEMEKRVILGEGKLDILKRVCAQINKSLLKIINDYEEFSKERSSSLEGSPDEFSNDFGQSLPNEKQTSGILSDHQQSQFCKSTGESAQTSQH
notes: also called MORT-2
B5: MACHβ1 (ORF-B of MACH) (other)
chain: B4 chain
notes: Gal4 fusion in two-hybrid tests; also called MACH B; MACH ORF-B
B6: MORT-1 protein (full-length) (other)
chain: VNQAPECRFGGGILGPLGKRRDLARASEPRTEGARRAGPQPRPLADPAMDPFLVLLHSVSSSLSSSELTELKFLCLGRVVKRKLERVQSGLDLFSMLLEQNDLEPGHTELLRELLASLRRHDLLRRVDDFEAGAAAGAAPGEEDLCAAFNVICDNVGKDWRRLARQLKVSDTKIDSIEDRYPRNLTERVRESLRIWKNTEKENATVAHLVGALRSCQMNLVADLVQEVQQARDLQNRSGAMSPMSWNSDASTSEAS
notes: Full-length construct; also called HF1; FADD

Key:
[1] = target: the molecule itself; assay: yeast two-hybrid, β-galactosidase test (FIG. 1)
[2] = target: the molecule itself; assay: yeast two-hybrid
Method: (§1) In FIG. 5, there is shown the results of the interaction of MORT-1 and MACH within transfected yeast cells. Briefly, MORT-1 and MACHβ1 and their deletion constructs, as well as MACHα1, a MACHα1 mutant in which the catalytic cysteine Cys₃₆₀ is replaced by Ser (MACHα1 (C360S)) and the intracellular domain of human FAS-R (Fas-IC), were expressed within transfected SFY526 yeast in Gal4 DNA binding domain and activation domain constructs (pGBT9 and pGAD-GH). Their interaction was assessed by a β-galactosidase expression filter assay as described in Boldin et al (1995b). The results are presented in terms of the time required for the development of strong color. […] None of the inserts examined interacted with a number of tested negative controls, including the intracellular domains of human p55 TNF receptor, p75 TNF receptor and CD40, and lamin, cyclin D and ‘empty’ Gal4 vectors. MACHβ1 was cloned by two hybrid screening of a Gal4 AD-tagged human B cell library (Durfee et al, 1993) for proteins that bind to MORT-1, using the HF7c Yeast reporter strain. Except where otherwise indicated, all experimental procedures for the findings presented are as described above (see also Boldin et al, 1995). […] MACHβ1 also self-associated in the transfected yeast. […] Expression of MACHβ1 molecules in mammalian cells yielded a 34 kDa protein that bound to MORT-1 molecules co-expressed with it. It was also able to bind to a GST-MORT-1 fusion protein in vitro.

[3] = target: T1, MACHα1 (human, UniProt Q14790 1-479); assay: yeast two-hybrid, β-gal filter assay (FIG. 5)
T1 construct: Gal4 fusion in two-hybrid tests; also called wild-type MACHα1

[4] = target: B2; assay: yeast two-hybrid, β-gal filter assay (FIG. 5)
[5] = target: B6; assay: yeast two-hybrid, β-galactosidase filter assay
Method: (§2) The yeast two-hybrid test was further applied to evaluate the specificity of binding of MACH to MORT-1, in particular, to define the region in MORT-1 to which MACH binds, as well as to determine which of the MACH ORFs interacts with MORT-1, the procedures being as set forth herein above in Examples 1 and 2. Briefly, various MORT-1 and MACH constructs were prepared for testing the interaction of the proteins encoded by the Gal4 DNA-binding domain and activation domain constructs within transfected SFY526 yeast cells as assessed by the β-galactosidase expression filter assay. The DNA-binding domain constructs were prepared in pGBT9 vectors and the activation domain constructs were prepared in pGAD-GM vectors. For the activation domain constructs, the full-length MACH cDNA was used (MACH), as was a construct encoding only the ORF-B (MACH B) region. Control activation domain constructs were those containing the full-length MORT-1 coding sequence (MORT 1, positive control) and those having no inserts, i.e., “empty” vectors (pGAD-GM). […] Control DNA-binding domain constructs, which were constructed to determine also the specificity of the MACH binding, included constructs encoding lamin (Lamin), residues 287-461 of the intracellular domain of the human p75 TNF-R (human p75 IC), cyclic D (cycD), SNF1, residues 206-426 of the intracellular domain of the human p55 TNF-R (human p55 IC), the ‘death domain’ region of the intracellular domain of the human Fas-R (human Fas DD), residues 216-277 of the intracellular domain of the human CD40 (human CD40 IC), vectors without insert or “empty” pGBT9 vectors (pGBT9, negative control), and a construct encoding the ORF-B region of MACH (MACH B). In the assay, the development of color was determined, where the greater the color development, the greater the interaction between the constructs encoded by the DNA-binding domain and activation domain; Color development was depicted by symbols, where “+++” and “+” indicate the development of a strong color within 30 and 90 min. of the assay, respectively, and “−−−” indicates the lack of development of color within 24 hrs. of the assay. In cases where interactions were not tested, no symbol was indicated.

[6] = target: B3; assay: yeast two-hybrid, β-gal filter assay (FIG. 5)
[7] = target: the molecule itself; assay: yeast two-hybrid, β-galactosidase filter assay
Method: as §2

[8] = target: T1, MACHα1; assay: yeast two-hybrid
Method: as §1

[9] = target: B2; assay: yeast two-hybrid
Method: as §1

[10] = target: T2, MORT-1 fragment, amino acids 130-245 (C-terminal part with the death domain homology region) (human, UniProt Q13158 82-197); assay: yeast two-hybrid, β-galactosidase test (FIG. 1)
T2 construct: Gal4 fusion in two-hybrid tests; expressed untagged in HeLa cells for the cytotoxicity test; also called MORT-1 DD; MORT-1 dd
T2 sequence: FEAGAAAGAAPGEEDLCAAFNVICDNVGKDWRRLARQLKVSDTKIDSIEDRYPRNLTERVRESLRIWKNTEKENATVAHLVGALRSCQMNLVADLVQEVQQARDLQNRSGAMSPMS

[11] = target: B3; assay: yeast two-hybrid, β-galactosidase test (FIG. 1)
[12] = target: T3, mouse Fas-IC with replacement mutation I225A (mouse, UniProt P25446 187-327); assay: yeast two-hybrid, β-galactosidase test (FIG. 1)
T3 construct: domain: intracellular domain
T3 sequence (looked up): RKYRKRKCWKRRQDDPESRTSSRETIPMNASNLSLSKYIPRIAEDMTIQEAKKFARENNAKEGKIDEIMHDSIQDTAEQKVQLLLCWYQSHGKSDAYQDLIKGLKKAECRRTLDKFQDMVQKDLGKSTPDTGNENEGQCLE

[13] = target: T4, mouse Fas-IC with replacement mutation I225N (mouse, UniProt P25446 187-327); assay: yeast two-hybrid, β-galactosidase test (FIG. 1)
T4 construct: domain: intracellular domain; The text calls the change 'Ile to Leu' but labels it I225N; also called lpr^eg mutation
T4 sequence (looked up): T3 sequence (looked up) with A60N

[14] = target: T5, 'empty' Gal4 DNA-binding-domain vector pGBT9 (UniProt P04386 1-147); assay: yeast two-hybrid, β-galactosidase test (FIG. 1); empty pGBT9 is named as a negative control in paragraph 206
T5 construct: Negative control
T5 sequence (P04386 1-147 limits assumed): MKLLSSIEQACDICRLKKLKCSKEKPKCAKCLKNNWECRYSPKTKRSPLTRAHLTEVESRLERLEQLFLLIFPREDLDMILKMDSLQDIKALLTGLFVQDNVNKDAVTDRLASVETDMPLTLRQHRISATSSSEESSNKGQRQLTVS

[15] = target: B5; assay: yeast two-hybrid, β-galactosidase filter assay
Method: as §2

B1: no binding [1].

B2: binds [2].

B3: no binding [3]; no binding [4].

For B4, the “time to development of strong color (beta-galactosidase filter assay, yeast two-hybrid)” value (“time to development of strong color” below) [5] was at most 30 min.

B5 was tested, and the binding result [6] was “no binding”, the “time to development of strong color” value [5] was at most 30 min and the “time to development of strong color” value [7] was 30 to 90 min. B5: binds [8]; binds [9].

B6: no binding [10]; no binding [11]; no binding [12]. The binding result [13] was “no binding”, the binding result [14] was “no binding” and the “time to development of strong color” value [7] was at most 30 min. For the same binder, the “time to development of strong color” value [15] was 30 to 90 min.
